Measured values as given in patent US12686846B2, “Plant sweet and yeast MSF transporter capable of transporting different sugars simultaneously” (THE BOARD OF TRUSTEES OF THE UNIVERSITY OF ILLINOIS, priority 2020, dated 2026).
Positions count from the first letter of the chain named. In names and notes the source's numbering stands. Several values for one entry are separate records, joined by “and”; a condition that tells them apart may be missing. Equal entries are not always repeated. Entries after “also recorded” stand apart in the source; their conditions may differ.

B1: A175F: AtSWEET7 single mutation A175F (protein, UniProt Q8LBF7 1-258, looked up, variant A175F)
Bidirectional sugar …: MVFAHLNLLRKIVGIIGNFIALCLFLSPTPTFVRIVKKKSVEEYSPIPYLATLINCLVWVLYGLPTVHPDSTLVITINGTGILIEIVFLTIFFVYCGRQKQRLIISAVIAAETAFIAILAVLVLTLQHTTEKRTMSVGIVCCVFNVMMYASPLSVMKMVIKTKSVEFMPFWLSVFGFLNAGVWTIYALMPFDPFMAIPNGIGCLFGLAQLILYGAYYKSTKRIMAERENQPGYVGLSSAIARTGSEKTANTNQEPNNV
B2: AtSWEET5: Arabidopsis thaliana SWEET5 transporter polypeptide (protein, UniProt Q9FM10 1-240, looked up)
Bidirectional sugar …: MTDPHTARTIVGIVGNVISFGLFCAPIPTMVKIWKMKSVSEFKPDPYVATVLNCMMWTFYGLPFVQPDSLLVITINGTGLFMELVYVTIFFVFATSPVRRKITIAMVIEVIFMAVVIFCTMYFLHTTKQRSMLIGILCIVFNVIMYAAPLTVMKLVIKTKSVKYMPFFLSLANFMNGVVWVIYACLKFDPYILIPNGLGSLSGIIQLIIYITYYKTTNWNDDDEDKEKRYSNAGIELGQA
B3: AtSWEET1: Arabidopsis thaliana SWEET1 transporter polypeptide, SEQ ID NO:1 (protein)
chain: MNIAHTIFGVFGNATALFLFLAPSITFKRIIKNKSTEQFSGIPYPMTLLNCLLSAWYGLPFVSKDNTLVSTINGTGAVIETVYVLIFLFYAPKKEKIKIFGIFSCVLAVFATVALVSLFALQGNGRKLFCGLAATVFSIIMYASPLSIMRLVVKTKSVEFMPFFLSLFVFLCGTSWFVYGLIGRDPFVAIPNGFGCALGTLQLILYFIYCGNKGEKSADAQKDEKSVEMKDDEKKQNVVNGKQDLQV
modifications: Arabidopsis thaliana SWEET1 (AtSWEET1) transporter polypeptide
B4: F168A: AtSWEET1 single mutation F168A (protein, UniProt Q8L9J7 1-247, looked up, variant F168A)
Bidirectional sugar …: B3 chain with F168A
B5: AtSWEET4: Arabidopsis thaliana SWEET4 transporter polypeptide (protein, UniProt Q944M5 1-251, looked up)
Bidirectional sugar …: MVNATVARNIAGICGNVISLFLFLSPIPTFITIYKKKKVEEYKADPYLATVLNCALWVFYGLPMVQPDSLLVITINGTGLAIELVYLAIFFFFSPTSRKVKVGLWLIGEMVFVGIVATCTLLLFHTHNQRSSFVGIFCVIFVSLMYIAPLTIMSKVIKTKSVKYMPFSLSLANFLNGVVWVIYALIKFDLFILIGNGLGTVSGAVQLILYACYYKTTPKDDEDEEDEENLSKVNSQLQLSGNSGQAKRVSA
B6: Saccharomyces cerevisiae ScGal2 (Gal2) transporter, SEQ ID NO:32 (Saccharomyces cerevisiae S288C) (protein)
chain: MAVEENNMPVVSQQPQAGEDVISSLSKDSHLSAQSQKYSNDELKAGESGSEGSQSVPIEIPKKPMSEYVTVSLLCLCVAFGGFMFGWDTGTISGFVVQTDFLRRFGMKHKDGTHYLSNVRTGLIVAIFNIGCAFGGIILSKGGDMYGRKKGLSIVVSVYIVGIIIQIASINKWYQYFIGRIISGLGVGGIAVLCPMLISEIAPKHLRGTLVSCYQLMITAGIFLGYCTNYGTKSYSNSVQWRVPLGLCFAWSLFMIGALTLVPESPRYLCEVNKVEDAKRSIAKSNKVSPEDPAVQAELDLIMAGIEAEKLAGNASWGELFSTKTKVFQRLLMGVFVQMFQQLTGNNYFFYYGTVIFKSVGLDDSFETSIVIGVVNFASTFFSLWTVENLGHRKCLLLGAATMMACMVIYASVGVTRLYPHGKSQPSSKGAGNCMIVFTCFYIFCYATTWAPVAWVITAESFPLRVKSKCMALASASNWVWGFLIAFFTPFITSAINFYYGYVFMGCLVAMFFYVFFFVPETKGLSLEEIQELWEEGVLPWKSEGWIPSSRRGNNYDLEDLQHDDKPWYKAMLE
B7: Lipomyces starkeyi LST1_205437 transporter, wild type, SEQ ID NO: 4 (Lipomyces starkeyi NRRL Y-11557) (protein)
chain: MGFLGFLNRSQASEPVEKESTATTPSEGRTPQRPLSPAVGVPLEQDFETQLSAKDAPLLAFILGGVASVGGFMFGYQTGQISGFLEMSDFKTRFAACNSQTGQCTFSAARQGTIVGLFSIGTLIGSLIAAPIADRIGRRLTISFWAFFFMIGTVLEISSSHVWVQFAMGRFVGGLGIGALSVVVPMYQSESTPRMIRGVIVSSYQLMVTLGIWLAYMINWGTESLQGSQSWRITNGMSFLWALVLGIAILGLPESPRYAYRVGREEEARKNMARLYKLSPNHPIINLEIQEIQEKLDAERVGGDHPWYEIFTGPRMLYRTILGMVLQAGQQLTGANYFFYYGTTVFSATGLSNSYVTQIILGSVNVGGTIAGLWLIENCGRRKALMGGAAWMFMCFMVFAFVGHFSLDHQNPEATPQAGAALVVFSCLFIIAFAMTWGPIVWAIVGELYPARYRATCMGLATSSNWLFNFLIGFFTTFITGDIDYLYGLVFAGCCFALFFIVYFFVIETKGRSLEEIDTMYVLHVNPINSAKWDSSQLMRDGDGLVNTDDLYLEAGGNRFAKDEHSAHEMIPSHDENAPGPSHTSHADIEKAESSGAESRDAL

Legend:
[1] = system: SR8D8 expressing transporter; experiment: Glucose and xylose mixed sugar flask fermentation (20 g/L each); assay type: cell-based, S. cerevisiae; settings: 20 g/L of glucose and xylose, YP medium
Procedure: (§1) For flask fermentation, a single colony was inoculated to 5 or 25 mL YPE ([…], 1% w/v yeast extract, 2% peptone, 5% ethanol) supplemented with 200 μg/ml of geneticin to obtain seed cultures. […] Flask fermentations were maintained at 30° C. and 250 rpm.
(§2) A xylose fermenting S. cerevisiae yeast (SR8) with HXT1-7Δ, GAL2Δ deletions was used for transporter screening and characterization (SR8D8). SR8D8 was grown in YPE medium/plate (10 g/L yeast extract, 20 g/L peptone, and 5 g/L ethanol). […] SRD8 strains transformed with plasmid containing KanMX marker conferring resistance to G418 (geneticin) were propagated on YPE supplemented with 200 μg/ml of geneticin. For growth and flask fermentation experiments all media was supplemented with 200 μg/ml of geneticin for plasmid maintenance. Biomass was calculated from the OD600 measured using a Biomate 5 UV-visible spectrophotometer (Fisher, NY, USA). All growth rates were measured using a Bioscreen C plate reader system (Growth Curves USA, Piscataway, NJ, USA). A 2 μL inoculum of fully grown culture was added into 200 μL YP (+200 μg/ml Geneticin) with varying concentrations of different sugars. A wide band filter (420-580 nm) was used to measure optical density. Bioscreen C values represent mean value from three biological replicates. In all cases, the Bioscreen C was set to maintain a temperature of 30° C. and high aeration through high continuous shaking.

[2] = system: SR8D8 expressing transporter; experiment: Transporter screening for growth on glucose or xylose (Bioscreen C); assay type: cell-based, S. cerevisiae; settings: glucose or xylose containing medium, OD600
Procedure: ScGal2 expressing SR8D8 were used as a positive control (FIG. 3). Most of the AtSWEETs and putative oleaginous transporters expressing strains were not able to grow on glucose or xylose.
as §2

[3] = system: SR8D8 expressing transporter; experiment: Sole glucose or xylose flask fermentation; assay type: cell-based, S. cerevisiae
Procedure: as §1, §2

[4] = substrate: OC[C@H]1OC(O)[C@H](O)[C@@H](O)[C@@H]1O; experiment: cells, lysate or membranes; settings: other: initial glucose uptake (5 s), 30° C., pH 6.5, 0.2 to 100 mM glucose, ± SEM in Table 1

Molecule	glucose and xylose mixed sugar fermentation phenotype [1]	growth / transport capacity on glucose or xylose [2]	also measured
B1	capable of improving glucose and xylose uptake rate		
B2	simultaneously utilize glucose and xylose	capable of sustaining an efficient growth on glucose or xylose	
B3	complete preference for glucose with negligible xylose consumption; also recorded: solo glucose fermentation	can sustain growth of SR8D8 in glucose and xylose containing medium; also recorded: glucose transporter with almost no xylose transport capacity	sole sugar fermentation performance ([3]; glucose or xylose conditions, YP medium): robust glucose fermentation but inefficient xylose fermentation; xylose consumption ([3]; xylose fermentation, within 50 h): 5 g/L
B4	capable of improving both glucose and xylose uptake rate		
B5	co-consumption of glucose and xylose with a faster glucose consumption rate than that of xylose; also recorded: co-fermentation with glucose preference	substantial growth on xylose and glucose; also recorded: both glucose and xylose transport capacity	growth / transport capacity on glucose or xylose ([2]; listed as SWEET4): capable of sustaining an efficient growth on glucose or xylose; glucose and xylose mixed sugar fermentation phenotype ([1]; listed as SWEET4): simultaneously utilize glucose and xylose
B6			Km [4]: 1613 µM and 1600 ± 200 µM
B7			Km [4]: 4975 µM; Vmax [4]: 46.89 nmol/min/mg
